Measured values: patent US20240043534A1

Assays:
[1] = target: Fab with CK (kappa) light chain constant domain; experiment: ELISA
[2] = target: yeast histone chaperone protein Asf1 (Anti-silencing factor 1) (yeast) (UniProt P32447); experiment: cell-based or functional assay
[3] = target: N-terminal methyltransferase domain of the Zika virus bifunctional NS5 enzyme (MT ZIKV) (Zika virus); experiment: cell-based or functional assay
[4] = target: N-terminal methyltransferase domain of the Zika virus bifunctional NS5 enzyme (MT ZIKV) (Zika virus); experiment: SPR, Fab as analyte on His-tag-immobilized antigen
[5] = target: “Λ” Fab scaffold (4D5 scaffold with SEELQANK in the Lc region); experiment: SPR (preliminary results), Protein G variant against Fab scaffold
[6] = target: Fab^H (Herceptin Fab scaffold with wt human kappa Lc; Lc aa 123-127 EQLKS); experiment: as above
[7] = target: FabHS (human 4D5 scaffold with residues PEELRTNK replacing amino acids corresponding to 15-22 of SEQ ID NO:1); experiment: protein ELISA
[8] = target: Fab^H(Her2)-linker-GA1 fusion (13 residue linker); experiment: cell-based or functional assay

Chain of FabHS (human 4D5 scaffold with residues PEELRTNK replacing amino acids corresponding to 15-22 of SEQ ID NO:1) (light, as listed by the source): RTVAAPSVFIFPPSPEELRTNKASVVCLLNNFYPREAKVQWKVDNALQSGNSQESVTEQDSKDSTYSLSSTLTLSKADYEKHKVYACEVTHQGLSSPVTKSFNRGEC
Chain of yeast histone chaperone protein Asf1 (Anti-silencing factor 1) (yeast) (P32447 1-158 limits assumed): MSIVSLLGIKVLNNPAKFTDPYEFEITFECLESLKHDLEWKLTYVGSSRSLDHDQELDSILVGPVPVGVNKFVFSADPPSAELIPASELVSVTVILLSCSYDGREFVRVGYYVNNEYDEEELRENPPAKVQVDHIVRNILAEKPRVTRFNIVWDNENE
Chain of “Λ” Fab scaffold (4D5 scaffold with SEELQANK in the Lc region) (light, as listed by the source): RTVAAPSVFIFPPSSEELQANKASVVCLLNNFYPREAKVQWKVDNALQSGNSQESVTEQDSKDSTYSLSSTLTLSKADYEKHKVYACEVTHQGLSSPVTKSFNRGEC

B1: Protein-G-A1 (SEQ ID NO:27) (designed binder)
chain: MKGETTTEAVDAATAEKVFKQYANDNGVDGEWTYDDATKTFTVTEKPEVIDASELTPAVTTYKLVINGRTLSGYTTTTAVDAATAEKVFKQYAYVHEVDGEWTYDDATKTFTVTEKPEVIDASELTPAVTTYKLVINGRTLSGETTTKAVDAETAEKAFKQYANDNGVDGVWTYDDATKTFTVTE
EC50 ratio (preference for CK over Cλ) [1]: > 5000

B2: E11 Asf1 LRT-Fab (Fab, V domains shown)
VH: EVQLVESGGGLVQPGGSLRLSCAASGFNISYSSIHWVRQAPGKGLEWVASISSYYGSTYYADSVKGRFTISADTSKNTAYLQMNSLRAEDTAVYYCARSRGQASWDYWGQGTLVTVSS
VL: DIQMTQSPSSLSASVGDRVTITCRASQSVSSAVAWYQQKPGKAPKLLIYSASSLYSGVPSRFSGSRSGTDFTLTISSLQPEDFATYYCQQSSDDPITFGQGTKVEIKR
β-lactamase (BL) split-enzyme complementation, fluorescent signal [2]: < 10 fold

B3: Z2G6 ZIKV LRT-Fab (Fab, V domains shown)
VH: EVQLVESGGGLVQPGGSLRLSCAASGFNVYYYYIHWVRQAPGKGLEWVASIYSYSGYTYYADSVKGRFTISADTSKNTAYLQMNSLRAEDTAVYYCAREGVWWEDEFYPGLDYWGQGTLVTVSS
VL: DIQMTQSPSSLSASVGDRVTITCRASQSVSSAVAWYQQKPGKAPKLLIYSASSLYSGVPSRFSGSRSGTDFTLTISSLQPEDFATYYCQQSWSSLFTFGQGTKVEIKR
β-lactamase (BL) split-enzyme complementation, limit of antigen detection [3]: 30 nM | Kd [4]: 1.7 nM | koff [4]: 9.2e-05 s⁻¹

B4: Z2C4 ZIKV LRT-Fab (Fab, V domains shown)
VH: EVQLVESGGGLVQPGGSLRLSCAASGFNVYYSSIHWVRQAPGKGLEWVAYIYPSSGSTYYADSVKGRFTISADTSKNTAYLQMNSLRAEDTAVYYCARSWSPYGMDYWGQGTLVTVSS
VL: DIQMTQSPSSLSASVGDRVTITCRASQSVSSAVAWYQQKPGKAPKLLIYSASSLYSGVPSRFSGSRSGTDFTLTISSLQPEDFATYYCQQWYDSLITFGQGTKVEIKR
β-lactamase (BL) split-enzyme complementation, limit of antigen detection [3]: 30 nM | Kd [4]: 0.7 nM

B5: Protein G D (designed binder)
chain: TPAVTTYKLVINGRTLSGYTTTTAVDAATAEKVFKQIDMVSSVDGEWTYDDATKTFTVTEKPEKL
Kd [5]: 50 nM | Kd [6]: 15 nM

B6: Protein-G-HS C6 (designed binder)
chain: MKGETTTEAVDAATAEKVFKQYANDNGVDGEWTYDDATKTFTVTEKPEVIDASELTPAVTTYKLVINGKTLKGETTTEAVDAATAEKVFKQYANDNGVDGEWTYDDATKTFTVTEKPEVIDASELTPAVTTYKLVINGRTLSGETTTKAVDAETAEKAFKQYSRPHVVDGVWTYDDATKTFTVTE
IC50 [7]: 8 nM

B7: Protein-G-HS C7 (designed binder)
chain: MKGETTTEAVDAATAEKVFKQYANDNGVDGEWTYDDATKTFTVTEKPEVIDASELTPAVTTYKLVINGKTLKGETTTEAVDAATAEKVFKQYANDNGVDGEWTYDDATKTFTVTEKPEVIDASELTPAVTTYKLVINGRTLSGETTTKAVDAETAEKAFKQYAYGAVVDGVWTYDDATKTFTVTE
IC50 [7]: 100 nM

B8: hOKT3(S)_LRT (Fab, V domains shown)
VH: EVQLVESGGGLVQPGGSLRLSCAASGYTFTRYTMHWVRQAPGKGLEWIGYINPSRGYTNYNQKFKDKATISTDKSKNTAYLQMNSLRAEDTAVYYCARYYDDHYSLDYWGQGTLVTVSS
VL: DIQMTQSPSSLSASVGDRVTITCSASSSVSYMNWYQQKPGKAPKRWIYDTSKLASGVPSRFSGSGSGTDYTLTISSLQPEDFATYYCQQWSSNPFTFGQGTKVEIKR
redirected tumor-cell killing (LDH release), PBMC-SKBR3 co-cultures, bi-Fab at 50 nM [8]: < 70%
